IntAct's records for PubMed 29892012

B1: Protein VAC14 homolog (Homo sapiens), Q08AM6 (parent)
chain: MNPEKDFAPLTPNIVRALNDKLYEKRKVAALEIEKLVREFVAQNNTVQIKHVIQTLSQEFALSQHPHSRKGGLIGLAACSIALGKDSGLYLKELIEPVLTCFNDADSRLRYYACEALYNIVKVARGAVLPHFNVLFDGLSKLAADPDPNVKSGSELLDRLLKDIVTESNKFDLVSFIPLLRERIYSNNQYARQFIISWILVLESVPDINLLDYLPEILDGLFQILGDNGKEIRKMCEVVLGEFLKEIKKNPSSVKFAEMANILVIHCQTTDDLIQLTAMCWMREFIQLAGRVMLPYSSGILTAVLPCLAYDDRKKSIKEVANVCNQSLMKLVTPEDDELDELRPGQRQAEPTPDDALPKQEGTASGGPDGSCDSSFSSGISVFTAASTERAPVTLHLDGIVQVLNCHLSDTAIGMMTRIAVLKWLYHLYIKTPRKMFRHTDSLFPILLQTLSDESDEVILKDLEVLAEIASSPAGQTDDPGPLDGPDLQASHSELQVPTPGRAGLLNTSGTKGLECSPSTPTMNSYFYKFMINLLKRFSSERKLLEVRGPFIIRQLCLLLNAENIFHSMADILLREEDLKFASTMVHALNTILLTSTELFQLRNQLKDLKTLESQNLFCCLYRSWCHNPVTTVSLCFLTQNYRHAYDLIQKFGDLEVTVDFLAEVDKLVQLIECPIFTYLRLQLLDVKNNPYLIKALYGLLMLLPQSSAFQLLSHRLQCVPNPELLQTEDSLKAAPKSQKADSPSIDYAELLQHFEKVQNKHLEVRHQRSGRGDHLDRRVVL
partner: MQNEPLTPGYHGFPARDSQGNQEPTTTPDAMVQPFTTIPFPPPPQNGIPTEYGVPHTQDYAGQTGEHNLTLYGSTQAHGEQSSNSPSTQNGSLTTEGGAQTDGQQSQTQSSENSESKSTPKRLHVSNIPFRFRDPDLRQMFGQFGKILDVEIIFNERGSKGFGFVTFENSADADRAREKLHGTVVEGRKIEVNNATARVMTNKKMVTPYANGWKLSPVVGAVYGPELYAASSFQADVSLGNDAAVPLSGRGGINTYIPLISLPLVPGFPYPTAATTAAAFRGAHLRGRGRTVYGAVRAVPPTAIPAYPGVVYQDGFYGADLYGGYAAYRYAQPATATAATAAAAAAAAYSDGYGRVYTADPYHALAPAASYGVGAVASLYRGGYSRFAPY
B2: Protein VAC14 homolog (Homo sapiens), Q08AM6 (parent)
chain: B1 chain
partner: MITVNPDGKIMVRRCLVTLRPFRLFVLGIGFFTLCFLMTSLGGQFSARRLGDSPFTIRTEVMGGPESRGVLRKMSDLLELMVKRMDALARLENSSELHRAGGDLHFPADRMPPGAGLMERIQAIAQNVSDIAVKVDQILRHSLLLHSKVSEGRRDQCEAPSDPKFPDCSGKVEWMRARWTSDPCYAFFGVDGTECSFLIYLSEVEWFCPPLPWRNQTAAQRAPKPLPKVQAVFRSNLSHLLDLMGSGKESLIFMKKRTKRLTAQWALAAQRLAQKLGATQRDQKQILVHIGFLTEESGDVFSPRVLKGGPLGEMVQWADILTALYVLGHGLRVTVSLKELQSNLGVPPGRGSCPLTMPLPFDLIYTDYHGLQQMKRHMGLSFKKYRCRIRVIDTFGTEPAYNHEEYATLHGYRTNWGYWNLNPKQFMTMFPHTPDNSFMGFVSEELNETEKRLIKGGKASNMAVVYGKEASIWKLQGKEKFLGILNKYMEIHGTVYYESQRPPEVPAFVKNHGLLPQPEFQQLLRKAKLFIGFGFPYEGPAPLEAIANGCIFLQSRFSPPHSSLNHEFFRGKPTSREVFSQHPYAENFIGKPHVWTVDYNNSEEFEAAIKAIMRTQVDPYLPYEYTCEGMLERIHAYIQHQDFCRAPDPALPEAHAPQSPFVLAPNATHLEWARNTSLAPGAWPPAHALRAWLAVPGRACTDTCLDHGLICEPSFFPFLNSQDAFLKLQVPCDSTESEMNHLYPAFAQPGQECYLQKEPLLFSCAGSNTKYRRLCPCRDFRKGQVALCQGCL
B3: Synaptotagmin-16 (Homo sapiens), Q17RD7 (parent)
chain: MVLAMASQDVQNFFQPFSSWISRVYEALQQAGDMLSASLVNISKQDSKLSDKLDQDLDNIQIQETYFEDEEQDNDWSQEDANSLFLEVDHFSCCNSDLQDSAQNSSPSLSQHAKDSCSTMSQWPNWASDDRKLPHVLSSIAEEEHHLEKQRSGLQHGFDSQLPGTLETVNGKKQVNSFGDDEELSTSSDSDEEVIKQFEISVSRSQSFRSVTSEKGKQTGLEQKPKFSRSLLTHGEDGTEVSACEDLDGASQRRYSENLSYGEDDHIPAHSQSPCERGDAKHHGTSHQESSVVQSLRRQSTEGSLEMETAFNSRGFEDSYATDSSSMWSPEEQDRTNLQVPSGVSEPISKCGDLDVIFEYRAASQKLTVTIVRAQGLPDKDRSGVNSWQVHVVLLPGKKHRGRTNIQRGPNPVFREKVTFAKLEPRDVAACAVRFRLYAARKMTRERMMGEKLFYLSHLHPEGEMKVTLVLEPRSNISSGGSPLSPSAVSHSDSTSSTQSLSHGGAPELLVGLSYNATTGRLSVEMIKGSHFRNLAVNRAPDTYGKLFLLNSVGQEMSRCKTSIRRGQPNPVYKETFVFQVALFQLSDVTLMISVYNRRTMKRKEMIGWIALGQNSSGEEEQDHWEEMKETKGQQICRWHTLLES
partner: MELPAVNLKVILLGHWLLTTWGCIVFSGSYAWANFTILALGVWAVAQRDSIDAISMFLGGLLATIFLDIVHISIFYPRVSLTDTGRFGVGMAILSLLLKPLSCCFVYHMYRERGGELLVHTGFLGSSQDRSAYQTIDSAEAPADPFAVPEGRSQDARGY
B4: E3 ubiquitin-protein ligase RNF31 (Homo sapiens), Q96EP0 (parent)
chain: MPGEEEERAFLVAREELASALRRDSGQAFSLEQLRPLLASSLPLAARYLQLDAARLVRCNAHGEPRNYLNTLSTALNILEKYGRNLLSPQRPRYWRGVKFNNPVFRSTVDAVQGGRDVLRLYGYTEEQPDGLSFPEGQEEPDEHQVATVTLEVLLLRTELSLLLQNTHPRQQALEQLLEDKVEDDMLQLSEFDPLLREIAPGPLTTPSVPGSTPGPCFLCGSAPGTLHCPSCKQALCPACDHLFHGHPSRAHHLRQTLPGVLQGTHLSPSLPASAQPRPQSTSLLALGDSSLSSPNPASAHLPWHCAACAMLNEPWAVLCVACDRPRGCKGLGLGTEGPQGTGGLEPDLARGRWACQSCTFENEAAAVLCSICERPRLAQPPSLVVDSRDAGICLQPLQQGDALLASAQSQVWYCIHCTFCNSSPGWVCVMCNRTSSPIPAQHAPRPYASSLEKGPPKPGPPRRLSAPLPSSCGDPEKQRQDKMREEGLQLVSMIREGEAAGACPEEIFSALQYSGTEVPLQWLRSELPYVLEMVAELAGQQDPGLGAFSCQEARRAWLDRHGNLDEAVEECVRTRRRKVQELQSLGFGPEEGSLQALFQHGGDVSRALTELQRQRLEPFRQRLWDSGPEPTPSWDGPDKQSLVRRLLAVYALPSWGRAELALSLLQETPRNYELGDVVEAVRHSQDRAFLRRLLAQECAVCGWALPHNRMQALTSCECTICPDCFRQHFTIALKEKHITDMVCPACGRPDLTDDTQLLSYFSTLDIQLRESLEPDAYALFHKKLTEGVLMRDPKFLWCAQCSFGFIYEREQLEATCPQCHQTFCVRCKRQWEEQHRGRSCEDFQNWKRMNDPEYQAQGLAMYLQENGIDCPKCKFSYALARGGCMHFHCTQCRHQFCSGCYNAFYAKNKCPEPNCRVKKSLHGHHPRDCLFYLRDWTALRLQKLLQDNNVMFNTEPPAGARAVPGGGCRVIEQKEVPNGLRDEACGKETPAGYAGLCQAHYKEYLVSLINAHSLDPATLYEVEELETATERYLHVRPQPLAGEDPPAYQARLLQKLTEEVPLGQSIPRRRK
partner: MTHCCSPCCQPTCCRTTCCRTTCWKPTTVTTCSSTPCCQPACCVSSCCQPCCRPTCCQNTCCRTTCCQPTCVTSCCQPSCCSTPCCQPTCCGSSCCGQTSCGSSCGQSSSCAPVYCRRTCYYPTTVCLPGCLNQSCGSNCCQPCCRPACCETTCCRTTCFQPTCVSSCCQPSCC
B5: Protein VAC14 homolog (Homo sapiens), Q08AM6 (parent)
chain: B1 chain
partner: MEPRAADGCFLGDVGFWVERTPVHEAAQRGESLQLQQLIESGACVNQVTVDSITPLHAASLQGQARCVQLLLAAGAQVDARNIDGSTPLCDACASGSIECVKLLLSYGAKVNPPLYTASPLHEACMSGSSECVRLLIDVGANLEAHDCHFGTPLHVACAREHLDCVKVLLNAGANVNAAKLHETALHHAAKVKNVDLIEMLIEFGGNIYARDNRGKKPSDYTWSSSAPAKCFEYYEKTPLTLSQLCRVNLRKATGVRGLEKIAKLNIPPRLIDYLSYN
B6: Protein VAC14 homolog (Homo sapiens), Q08AM6 (parent)
chain: B1 chain
partner: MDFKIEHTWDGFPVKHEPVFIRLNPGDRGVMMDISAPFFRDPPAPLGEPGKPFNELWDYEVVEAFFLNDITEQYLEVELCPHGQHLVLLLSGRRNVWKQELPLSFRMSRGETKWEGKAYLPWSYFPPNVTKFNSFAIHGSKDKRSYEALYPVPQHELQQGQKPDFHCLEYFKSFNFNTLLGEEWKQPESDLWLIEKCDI
B7: Protein VAC14 homolog (Homo sapiens), Q08AM6 (parent)
chain: B1 chain
partner: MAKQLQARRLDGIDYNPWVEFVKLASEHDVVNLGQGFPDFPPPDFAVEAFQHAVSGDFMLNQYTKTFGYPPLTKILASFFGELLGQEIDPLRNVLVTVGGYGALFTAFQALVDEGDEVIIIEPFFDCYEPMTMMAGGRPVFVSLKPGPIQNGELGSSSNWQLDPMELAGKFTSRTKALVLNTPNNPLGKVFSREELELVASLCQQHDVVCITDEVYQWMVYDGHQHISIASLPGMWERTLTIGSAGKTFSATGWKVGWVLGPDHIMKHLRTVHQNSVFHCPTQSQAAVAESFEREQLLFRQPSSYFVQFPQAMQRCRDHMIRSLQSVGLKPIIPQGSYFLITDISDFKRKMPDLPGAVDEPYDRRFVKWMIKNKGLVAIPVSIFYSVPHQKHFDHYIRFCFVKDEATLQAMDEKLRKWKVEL

Variants of: B1
Settings: with rfox2_human RBFOX2, O43251

| effect of a mutation on the interaction | Variant |
| --- | --- |
| with no effect | A127S |

Variants of: B2
Settings: with mgt5b_human MGAT5B

| effect of a mutation on the interaction | Variant |
| --- | --- |
| with no effect | A127S |

Variants of: B3
Settings: with atrap_human AGTRAP

| effect of a mutation on the interaction | Variant |
| --- | --- |
| with no effect | R441W |

Variants of: B4
Settings: with kra92_human KRTAP9-2, Q9BYQ4

| effect of a mutation on the interaction | Variant |
| --- | --- |
| with no effect | R646W |

Variants of: B5
Settings: with asb13_human ASB13, Q8WXK3

| effect of a mutation on the interaction | Variant |
| --- | --- |
| with no effect | A127S |

Variants of: B6
Settings: with cd033_human C4orf33, Q8N1A6

| effect of a mutation on the interaction | Variant |
| --- | --- |
| with no effect | A127S |

Variants of: B7
Settings: with kat1_human KYAT1, Q16773

| effect of a mutation on the interaction | Variant |
| --- | --- |
| with no effect | A127S |
